# Source: patent publication US20230285578A1 (INDIANA UNIVERSITY RESEARCH AND TECHNOLOGY, published 2023)
# Starred links: 1 amine or outer side, 2 acyl side, 3 side chain; linkers in the order of their positions; H or OH if unused. Groups on a side chain read outwards from the residue. No end group written: not given here. *: point of attachment. C18 diacid = O=C(O)CCCCCCCCCCCCCCCCC(=O)*; γGlu = O=C(O)[C@H](CCC(=O)[*:2])N[*:1]; AEEA = NCCOCCOCC(=O)O
# T1: PTH1 receptor (UniProt Q03431 27-593, limits assumed)
# T1 sequence (looked up): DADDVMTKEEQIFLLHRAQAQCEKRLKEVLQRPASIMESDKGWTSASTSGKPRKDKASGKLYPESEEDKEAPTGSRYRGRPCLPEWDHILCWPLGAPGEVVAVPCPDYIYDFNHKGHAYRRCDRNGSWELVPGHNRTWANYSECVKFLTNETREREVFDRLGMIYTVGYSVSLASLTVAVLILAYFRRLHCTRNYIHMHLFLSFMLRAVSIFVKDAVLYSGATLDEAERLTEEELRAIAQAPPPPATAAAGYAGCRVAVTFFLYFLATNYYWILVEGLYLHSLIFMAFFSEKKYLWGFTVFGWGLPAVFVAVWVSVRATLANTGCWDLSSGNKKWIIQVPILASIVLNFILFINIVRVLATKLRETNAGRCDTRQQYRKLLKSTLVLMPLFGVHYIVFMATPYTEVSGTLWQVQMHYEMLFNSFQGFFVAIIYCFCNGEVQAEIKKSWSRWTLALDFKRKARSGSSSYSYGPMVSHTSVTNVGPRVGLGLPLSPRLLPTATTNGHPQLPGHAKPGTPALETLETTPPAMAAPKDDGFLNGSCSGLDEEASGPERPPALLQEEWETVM
# T2: PTH1 receptor, Q03431
# T2 chain: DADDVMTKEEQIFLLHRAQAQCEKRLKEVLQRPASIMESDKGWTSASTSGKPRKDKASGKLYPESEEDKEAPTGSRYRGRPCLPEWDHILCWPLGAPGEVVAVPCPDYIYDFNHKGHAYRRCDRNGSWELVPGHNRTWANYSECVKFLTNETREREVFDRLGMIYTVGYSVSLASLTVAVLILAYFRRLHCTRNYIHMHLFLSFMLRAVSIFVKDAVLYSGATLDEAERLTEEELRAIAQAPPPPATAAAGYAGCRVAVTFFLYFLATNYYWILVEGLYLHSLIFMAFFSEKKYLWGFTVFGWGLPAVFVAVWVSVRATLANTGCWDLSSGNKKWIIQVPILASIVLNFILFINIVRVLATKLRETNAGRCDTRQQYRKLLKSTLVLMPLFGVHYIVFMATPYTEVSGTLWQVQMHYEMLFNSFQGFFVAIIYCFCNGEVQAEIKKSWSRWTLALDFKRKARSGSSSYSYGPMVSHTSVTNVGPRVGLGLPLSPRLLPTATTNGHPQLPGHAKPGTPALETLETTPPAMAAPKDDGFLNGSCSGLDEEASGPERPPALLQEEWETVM
# Legend:
# Assay in all cases: cell-based or functional assay
# PTH1 receptor [1] = target: T1, PTH1 receptor
# PTH1 receptor, Q03431 = target: T2, PTH1 receptor, Q03431
# PTH1 receptor [2] = target: T1, PTH1 receptor; remark: listed apart in the source
# PTH1 receptor [3] = target: T1, PTH1 receptor; remark: listed apart in the source
# PTH1 receptor [4] = target: T1, PTH1 receptor; remark: listed apart in the source
# PTH1 receptor [5] = target: T1, PTH1 receptor; remark: listed apart in the source
# PTH1 receptor [6] = target: T1, PTH1 receptor; remark: listed apart in the source
# PTH1 receptor [7] = target: T1, PTH1 receptor; remark: listed apart in the source
binder,measurement,setting,value
"XXSVSEIQLMHNLGKHLNSMERVEWLRKKLQDVHNFX (d-Lys at position -1 with side chain acylated with γE-COC16H32CO2H; N-methyl-Gly (sarcosine) at position 0; Lys35 side chain acylated with γE-COC16H32CO2H; C-terminal amide) [PTH(1-35)a, dK-1(γE-diacidC18), N(Me)G0, K35(γE-diacidC18)]","Potency EC50 (cAMP-responsive luciferase reporter, HEK293 cells co-transfected with the PTH1 receptor)",PTH1 receptor [1],200 nM
SVSEIQLMHNLGKHLDSMERVEWLRKKLQDVHK([γGlu-miniPEG-miniPEG-γGlu-C18 diacid]) (ends and bridges not checked) [SEQ ID NO: 122],"EC50 pM (cAMP Hunter Teriparatide Bioassay, CHO-K1 PTHR1 cells; FIG. 13B)","PTH1 receptor, Q03431",14.3 pM
"XXSVSEIQLMHNLGKHLNSMERVEWLRKKLQDVHNF (d-Lys at position -1 with side chain acylated with γE-COC16H32CO2H; N-methyl-Gly (sarcosine) at position 0; C-terminal free acid) [PTH(1-34), dK-1(γE-diacidC18), N(Me)G0]","Potency EC50 (cAMP-responsive luciferase reporter, HEK293 cells co-transfected with the PTH1 receptor)",PTH1 receptor [1],45.5 nM
SVSEIQLMHNLGKHLNSMERVEWLRKKLEDVHK([γGlu-miniPEG-miniPEG-γGlu-C18 diacid]) (ends and bridges not checked) [SEQ ID NO: 124],"EC50 pM (cAMP Hunter Teriparatide Bioassay, CHO-K1 PTHR1 cells; FIG. 13B)","PTH1 receptor, Q03431",43.1 pM
"SVSEIQLMHNLGKHLNSMERVEWLRKKLQDVHX (Lys33 side chain acylated with γE-(miniPEG)2-γE-COC16H32CO2H; C-terminal free acid) [PTH(1-33), K33(γE-2xOEG-γE-diacidC18)]","EC50 pM (cAMP Hunter Teriparatide Bioassay, CHO-K1 PTHR1 cells; FIG. 8A)",PTH1 receptor [2],31 pM
same,"EC50 pM (cAMP Hunter Teriparatide Bioassay, CHO-K1 PTHR1 cells; FIG. 11)",PTH1 receptor [3],10 pM
same,"EC50 pM (cAMP Hunter Teriparatide Bioassay, CHO-K1 PTHR1 cells; FIG. 12)",PTH1 receptor [4],36.6 pM
same,"EC50 pM (cAMP Hunter Teriparatide Bioassay, CHO-K1 PTHR1 cells; FIG. 13A)",PTH1 receptor [5],10.7 pM
same,"EC50 pM (cAMP Hunter Teriparatide Bioassay, CHO-K1 PTHR1 cells; FIG. 13B)",PTH1 receptor [6],19.3 pM
SVSEIQLMHNLGKHLNSXERVEWLRKKLQDVHX (site-specifically oxidised to methionine sulfoxide (position not given)) [SEQ ID NO: 110],"EC50 pM (cAMP Hunter Teriparatide Bioassay, CHO-K1 PTHR1 cells; FIG. 12)",PTH1 receptor [4],41.7 pM
SVSEIQLMHDLGKHLNSMERVEWLRKKLQDVHK([γGlu-miniPEG-miniPEG-γGlu-C18 diacid]) (ends and bridges not checked) [SEQ ID NO: 120],"EC50 pM (cAMP Hunter Teriparatide Bioassay, CHO-K1 PTHR1 cells; FIG. 13A)","PTH1 receptor, Q03431",10.9 pM
"SVSEIQLAHNLGKHLNSMERVEWLRKKLQDVHK([γGlu-AEEA-AEEA-γGlu-C18 diacid])-OH (N-terminus assumed; SMILES CC[C@H](C)[C@H](NC(=O)[C@H](CCC(=O)O)NC(=O)[C@H](CO)NC(=O)[C@@H](NC(=O)[C@@H](N)CO)C(C)C)C(=O)N[C@@H](CCC(N)=O)C(=O)N[C@@H](CC(C)C)C(=O)N[C@@H](C)C(=O)N[C@@H](Cc1c[nH]cn1)C(=O)N[C@@H](CC(N)=O)C(=O)N[C@@H](CC(C)C)C(=O)NCC(=O)N[C@@H](CCCCN)C(=O)N[C@@H](Cc1c[nH]cn1)C(=O)N[C@@H](CC(C)C)C(=O)N[C@@H](CC(N)=O)C(=O)N[C@@H](CO)C(=O)N[C@@H](CCSC)C(=O)N[C@@H](CCC(=O)O)C(=O)N[C@@H](CCCNC(=N)N)C(=O)N[C@H](C(=O)N[C@@H](CCC(=O)O)C(=O)N[C@@H](Cc1c[nH]c2ccccc12)C(=O)N[C@@H](CC(C)C)C(=O)N[C@@H](CCCNC(=N)N)C(=O)N[C@@H](CCCCN)C(=O)N[C@@H](CCCCN)C(=O)N[C@@H](CC(C)C)C(=O)N[C@@H](CCC(N)=O)C(=O)N[C@@H](CC(=O)O)C(=O)N[C@H](C(=O)N[C@@H](Cc1c[nH]cn1)C(=O)N[C@@H](CCCCNC(=O)CC[C@H](NC(=O)COCCOCCNC(=O)COCCOCCNC(=O)CC[C@H](NC(=O)CCCCCCCCCCCCCCCCC(=O)O)C(=O)O)C(=O)O)C(=O)O)C(C)C)C(C)C) [PTH(1-33), A8, K33(γE-2xOEG-γE-diacidC18)]",in vitro potency (fold reduction against the analog without A8),PTH1 receptor [7],~100 fold
SVSEIELMHNLGKHLNSMERVEWLRKKLQDVHK([γGlu-miniPEG-miniPEG-γGlu-C18 diacid]) (ends and bridges not checked) [SEQ ID NO: 118],"EC50 pM (cAMP Hunter Teriparatide Bioassay, CHO-K1 PTHR1 cells; FIG. 13A)","PTH1 receptor, Q03431",80.3 pM
"SVSEIQLMHNLGKHLNSMERVEWLRKKLQDVHNFX (Lys35 side chain acylated with γE-COC16H32CO2H (C18 diacid); C-terminal amide) [PTH(1-35)a, K35(γE-diacidC18)]","Potency EC50 (cAMP-responsive luciferase reporter, HEK293 cells co-transfected with the PTH1 receptor)",PTH1 receptor [1],2.9 nM
